Values belong to the binder of their own block, whether it stands above or below them.
What was measured:
[1] = target: FcγRIIIa on effector cells (Jurkat NFAT luciferase v-variant effector cells, Promega) (human, UniProt P08637 17-254); assay: cell-based or functional assay
[2] = target: T1, human ICOS expressed on cells (human, UniProt Q9Y6W8 21-199); assay: cell-based or functional assay
T1 sequence: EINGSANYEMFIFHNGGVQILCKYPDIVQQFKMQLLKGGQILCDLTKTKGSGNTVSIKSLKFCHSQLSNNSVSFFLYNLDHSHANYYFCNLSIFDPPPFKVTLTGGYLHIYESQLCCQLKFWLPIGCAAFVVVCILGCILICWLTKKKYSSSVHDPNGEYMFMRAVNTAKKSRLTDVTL

[3] = target: T2, mouse ICOS-mFc (Chimerigen) (mouse, UniProt Q9WVS0 21-141, limits assumed); assay: HTRF, mouse ICOS-mFc, competitor mouse B7-H2-Alexa 647, n1
T2 construct: Bought; also called recombinant mouse ICOS protein; mICOS; not shown: mouse Fc of the bought fusion
T2 sequence: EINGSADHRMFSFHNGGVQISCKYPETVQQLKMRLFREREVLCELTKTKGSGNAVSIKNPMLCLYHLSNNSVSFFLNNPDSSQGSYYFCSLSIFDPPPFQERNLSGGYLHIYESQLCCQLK
Procedure: 5 μl of human ICOS-mFc (Chimerigen) at 20 nM (5 nM final) or 5 ul of mouse ICOS-mFc (Chimerigen) at 4 nM (1 nM final) were added to relevant assay wells. Plate was incubated for 1 hour (hr) at room temperature (RT).
After incubation, assay was read on Envision plate reader (Perkin Elmer) using a standard HTRF protocol. 620 nm and 665 nm channel values were exported to Microsoft Excel and % Delta-F and % Neutralisation calculations performed. Titration curves and IC50 values [M] were plotted using Graphpad (Prism). IC50 values were calculated by first transforming the data using equation X=Log(X). The transformed data was then fitted using nonlinear regression, using fitting algorithm, log (inhibitor) vs. response—variable slope (four parameters).

[4] = target: T3, Biotinylated human ICOS protein (human, UniProt Q9Y6W8 21-140, limits assumed, biotinylated (sites not given)); assay: SPR ProteOn avidity format, biotinylated human ICOS on NLC chip, antibody analyte; apparent KD from equilibrium, 25 C
T3 construct: Captured on the NLC chip in the avidity SPR
T3 sequence: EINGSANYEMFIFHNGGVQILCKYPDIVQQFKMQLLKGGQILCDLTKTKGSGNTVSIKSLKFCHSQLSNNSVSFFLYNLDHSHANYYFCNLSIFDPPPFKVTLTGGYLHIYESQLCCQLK
Procedure: Biotinylated human ICOS protein diluted at 7.5 μg/mL in running buffer (1× HBS-EP+ Buffer Technova, cat. No. H8022) was captured on a NLC sensor chip (Bio-Rad, cat No 1765021). The surface was then blocked using biocytin (Sigma Aldrich, cat No B1758) at 1 mg/mL.
The assay was carried out at 25° C.
The buffer injection (i.e. 0 nM) was used to double reference the sensorgrams. The analysis was carried out using the equilibrium model inherent to the ProteOn's analysis software for each mAb² construct.

[5] = target: T2, mouse ICOS-mFc (Chimerigen); assay: HTRF, mouse ICOS-mFc, competitor mouse B7-H2-Alexa 647, mean as told in the text (table prints 0.37)

Chain of FcγRIIIa on effector cells (Jurkat NFAT luciferase v-variant effector cells, Promega) (P08637 other isoform, or with tags, fused parts or gaps mutant limits assumed): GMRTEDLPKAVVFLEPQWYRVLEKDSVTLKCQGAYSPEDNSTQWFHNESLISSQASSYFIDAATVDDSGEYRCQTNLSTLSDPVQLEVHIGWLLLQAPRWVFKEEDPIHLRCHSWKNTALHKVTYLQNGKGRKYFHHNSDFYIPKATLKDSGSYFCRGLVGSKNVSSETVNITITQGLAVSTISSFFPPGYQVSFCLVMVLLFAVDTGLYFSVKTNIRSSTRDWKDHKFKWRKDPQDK

- EC50 of luciferase fold of induction, CHO human ICOS target cells, N=1 [1]: 0.456 nM
- EC50 of luciferase fold of induction, CHO human ICOS target cells, N=2 [1]: 0.247 nM
- EC50 of luciferase fold of induction, CHO human ICOS target cells, N=3 [1]: 0.147 nM
- EC50 of luciferase fold of induction, CHO human ICOS target cells, mean [1]: 0.283 nM
- EC50 of luciferase fold of induction, CHO mouse ICOS target cells, N=1 [1]: 0.479 nM
- EC50 of luciferase fold of induction, CHO mouse ICOS target cells, N=2 [1]: 0.534 nM
- EC50 of luciferase fold of induction, CHO mouse ICOS target cells, N=3 [1]: 0.579 nM
- EC50 of luciferase fold of induction, CHO mouse ICOS target cells, mean [1]: 0.53 nM
- EC50 of ADCC (specific dye release), ICOS-transfected CCRF-CEM + NK cells, Donor 326 [2]: 0.0426 nM
- EC50 of ADCC (specific dye release), ICOS-transfected CCRF-CEM + NK cells, Donor 334 [2]: 0.0205 nM
- EC50 of ADCC (specific dye release), ICOS-transfected CCRF-CEM + NK cells, Donor 341 [2]: 0.0076 nM
- EC50 of ADCC (specific dye release), ICOS-transfected CCRF-CEM + NK cells, column 'Median' [2]: 0.0236 nM
- IC50 [3]: 7.98 nM
- Kd [4]: 57.1 nM
B1: STIM001 (antibody, human IgG1, kappa)
heavy: not shown
light: DIVMTQSPLSLPVTPGEPASISCRSSQSLLHSNEYNYLDWYLQKPGQSPQLLIFLGSNRASGVPDRFSGSGSGTDFTLKITRVEAEDVGIYYCMQSLQTPLTFGGGTKVEIKRTVAAPSVFIFPPSDEQLKSGTASVVCLLNNFYPREAKVQWKVDNALQSGNSQESVTEQDSKDSTYSLSSTLTLSKADYEKHKVYACEVTHQGLSSPVTKSFNRGEC
notes: Anti-ICOS monospecific antibody, tested as human IgG1; also called STIM001 monoclonal IgG1 antibody

- EC50 of luciferase fold of induction, CHO human ICOS target cells, N=1 [1]: 0.326 nM
- EC50 of luciferase fold of induction, CHO human ICOS target cells, N=2 [1]: 0.477 nM
- EC50 of luciferase fold of induction, CHO human ICOS target cells, N=3 [1]: 0.24 nM
- EC50 of luciferase fold of induction, CHO human ICOS target cells, mean [1]: 0.347 nM
- EC50 of luciferase fold of induction, CHO mouse ICOS target cells, N=1 [1]: 0.508 nM
- EC50 of luciferase fold of induction, CHO mouse ICOS target cells, N=2 [1]: 0.754 nM
- EC50 of luciferase fold of induction, CHO mouse ICOS target cells, N=3 [1]: 0.703 nM
- EC50 of luciferase fold of induction, CHO mouse ICOS target cells, mean [1]: 0.655 nM
- EC50 of ADCC (specific dye release), ICOS-transfected CCRF-CEM + NK cells, Donor 326 [2]: 0.0212 nM
- EC50 of ADCC (specific dye release), ICOS-transfected CCRF-CEM + NK cells, Donor 334 [2]: 0.0037 nM
- EC50 of ADCC (specific dye release), ICOS-transfected CCRF-CEM + NK cells, Donor 341 [2]: 0.0067 nM
- EC50 of ADCC (specific dye release), ICOS-transfected CCRF-CEM + NK cells, column 'Median' [2]: 0.0105 nM
- IC50 [3]: 0.87 nM
- IC50 [5]: 0.12 nM
B2: STIM003 (antibody, human IgG1, kappa)
heavy: not shown
light: EIVLTQSPGTLSLSPGERATLSCRASQSVSRSYLAWYQQKRGQAPRLLIYGASSRATGIPDRFSGDGSGTDFTLSISRLEPEDFAVYYCHQYDMSPFTFGPGTKVDIKRTVAAPSVFIFPPSDEQLKSGTASVVCLLNNFYPREAKVQWKVDNALQSGNSQESVTEQDSKDSTYSLSSTLTLSKADYEKHKVYACEVTHQGLSSPVTKSFNRGEC
notes: Anti-ICOS monospecific antibody, tested as human IgG1; also called STIM003 monoclonal IgG1 antibody

From patent US20240343810A1 (published 2024)
